“And” between values parts separate entries of the source, which are not always exact repeats. Equal values may be shown once.

Assay type in all cases: in vivo
Assay [1] deals with middle cerebral artery occlusion (MCAO) model in C57BL/6J mice. In words: Modified neurological severity score in MCAO model. Conditions: vs model group. Here is the method: (3) MS-SOD1 group (10 mice): mice aged 4 weeks were fed with drinking water supplemented with MS-SOD for 4 weeks (3 U/day/g body weight), and then subjected to establish middle cerebral artery occlusion model;
(4) MS-SOD2 group (10 mice): after establishing middle cerebral artery occlusion model, the mice were intragastrically administered with MS-SOD 600 U once when they waked up from the anesthesia. […]
The procedure was performed on each group of mice. […] The mice in groups 2-4 were scored by double blind method.
Finally, the differences of different intervention conditions and MCAO model establishment on the degree of cerebral injury and neurological severity in mice were analyzed. All data were expressed as mean ±standard deviation. […]

For assay [2], the system named is cerebral ischemia model in Albino strain zebrafish. The assay is described as follows: Ponatinib-induced cerebral ischemia model in zebrafish. To be noted: for Number of zebrafish with cerebral ischemia / Incidence of cerebral ischemia: n = 20; for Incidence of cerebral ischemia: model control 100%. As for the experimental part: Melanin allele mutated Albino strain zebrafish at 2 days post fertilization (2 dpf) was administered with an aqueous ponatinib solution (1 μg/mL) for 18 hours to establish a cerebral ischemia model in zebrafish. 180 melanin allele mutated Albino strain zebrafishes at 2 days post fertilization (2 dpf) were randomly selected. 30 zebrafishes were treated in each well (experiment group), and aqueous MS-SOD solutions with concentrations of 222, 667 and 2000 μg/mL were administrated respectively, the concentration of positive control drug aspirin was 50 μg/m L, and the normal control group and the model control group were set at the same time. The volume of each well was 3 mL. After MS-SOD treatment for a period of time, except for the normal control group, all the other experiment groups were simultaneously administrated with aqueous ponatinib solution to induce the cerebral ischemia model in zebrafish. After 18 hours of co-treatment with MS-SOD and ponatinib, 20 fish were randomly selected from each well and stained with o-Dianisidine. After staining, photos were taken and data were collected to count the number of zebrafish with cerebral ischemia and calculate the incidence of cerebral ischemia in zebrafish of each experiment group.

Assay [3] deals with cerebral hemorrhage model in wild-type AB strain zebrafish. The assay is described as follows: Movement velocity in simvastatin-induced cerebral hemorrhage model in zebrafish. Conditions: for Movement velocity (mean ± SE): n = 10, model control 80, normal control 198 mm/s. As for the experimental part: 5 dpf wild-type AB strain zebrafish was administered with an aqueous simvastatin solution (0.5 μM) for 18 hours to establish a cerebral hemorrhage model in zebrafish. 180 wild-type AB strain zebrafishes at 5 days post fertilization (5 dpf) were randomly selected and put in a six-well plate, 30 per well (experiment group). Aqueous MS-SOD solutions with concentrations of 222, 667 and 2000 μg/mL were administrated respectively, the concentration of positive control drug icariin was 30 μM, and the normal control group and the model control group were set at the same time. The volume of each well was 3 mL. After treatment of zebrafishes with samples for 4 hours, except for the normal control group, the other experiment groups were treated with simvastatin for 18 hours to establish the cerebral hemorrhage model. After the treatment, 10 zebrafishes from each group were randomly selected to measure the movement velocity (V) of zebrafish using a behavioral analyzer. The statistical significance of the movement velocity was used to evaluate the behavioral improvement effect of MS-SOD on cerebral hemorrhage. The formula of the behavioral improvement effect of MS-SOD on cerebral hemorrhage was as follows: [formula] Statistical analysis was performed using variance analysis and Dunnett's T-test, and p<0.05 indicated a significant difference.

For assay [4] the test system is unchanged. The assay is described as follows: Blood flow volume in simvastatin-induced cerebral hemorrhage model in zebrafish. To be noted: for Blood flow volume (mean ± SE): n = 10, model control 0.13, normal control 0.30 nL/s. Here is the method: 3 dpf wild-type AB strain zebrafish was administered with an aqueous simvastatin solution (0.5 μM) for 18 hours to establish a cerebral hemorrhage model in zebrafish. 180 wild-type AB strain zebrafishes at 3 days post fertilization (3 dpf) were randomly selected and put in a six-well plate, 30 per well (experiment group). Aqueous MS-SOD solutions with concentrations of 222, 667 and 2000 μg/mL were administrated respectively, the concentration of positive control drug icariin was 30 μM, and the normal control group (the zebrafishes were treated with water for fish) and the model control group were set at the same time. The volume of each well was 3 mL. After treatment of zebrafishes with samples for 4 hours, except for the normal control group, the other experiment groups were treated with simvastatin for 18 hours to establish the cerebral hemorrhage model. After the treatment, 10 zebrafishes from each group were randomly selected and placed in a heart rate and blood flow analysis system to record blood flow video of zebrafish, and analyze the blood flow volume (O) of zebrafish. The statistical significance of the blood flow volume was used to evaluate the improvement effect of MS-SOD on blood flow volume of cerebral hemorrhage. The formula of the improvement effect of MS-SOD on blood flow volume of cerebral hemorrhage was as follows: [formula] Statistical analysis was performed using variance analysis and Dunnett's T-test, and p<0.05 indicated a significant difference. 4.

B1: MS-SOD: manganese superoxide dismutase with high stability, gene from Thermus thermophilus HB27 expressed in E. coli; amino acid sequence SEQ ID NO: 4 (protein)
chain: MPYPFKLPDLGYPYEALEPHIDAKTMEIHHQKHHGAYVTNLNAALEKYPYLHGVEVEVLLRHLAALPQDIQTAVRNNGGGHLNHSLFWRLLTPGGAKEPVGELKKAIDEQFGGFQALKEKLTQAAMGRFGSGWAWLVKDPFGKLHVLSTPNQDNPVMEGFTPIVGIDVWEHAYYLKYQNRRADYLQAIWNVLNWDVAEEFFKKA
modifications: Amino acid sequence for MS-SOD
Take B1: the neurological severity score entry in assay [1] (MS-SOD1 group: 3 U/day/g body weight for 4 weeks before MCAO, P=0.281) is listed as “not significantly improved”. Also, the “neurological severity score (mNSS)” value in assay [1] (MS-SOD2 group: 600 U intragastrically once after MCAO, P=0.05) is “significantly reduced”. Also, the figures for the “Improvement effect on cerebral ischemia” value in assay [2] (MS-SOD 222 μg/mL), in assay [2] (MS-SOD 667 μg/mL) and in assay [2] (MS-SOD 2000 μg/mL) were 60%, 65% and 55%, respectively. The “Number of zebrafish with cerebral ischemia” value turned out to be 8 in assay [2] (MS-SOD 222 μg/mL), 7 in assay [2] (MS-SOD 667 μg/mL) and 9 in assay [2] (MS-SOD 2000 μg/mL). Moreover, the “Incidence of cerebral ischemia” value in assay [2] (MS-SOD 222 μg/mL) was 40%; in assay [2] (MS-SOD 667 μg/mL) it was 35%; in assay [2] (MS-SOD 2000 μg/mL) it was 45%. The Movement improvement effect is recorded as −2% in assay [3] (MS-SOD 222 μg/mL), 7% in assay [3] (MS-SOD 667 μg/mL) and 53% in assay [3] (MS-SOD 2000 μg/mL). In addition, the “Movement velocity (mean ± SE)” value in assay [3] (MS-SOD 222 μg/mL) is 78 mm/s and 78 ± 4 mm/s; in assay [3] (MS-SOD 667 μg/mL) it was 88 mm/s and 88 ± 3 mm/s; in assay [3] (MS-SOD 2000 μg/mL) it was 143 mm/s and 143 ± 24 mm/s. Also, the “Blood flow volume improvement effect” value is reported as 59% in assay [4] (MS-SOD 222 μg/mL), 71% in assay [4] (MS-SOD 667 μg/mL) and 71% in assay [4] (MS-SOD 2000 μg/mL). Also, the “Blood flow volume (mean ± SE)” value was 0.23 nL/s and 0.23 ± 0.014 nL/s in assay [4] (MS-SOD 222 μg/mL); 0.25 nL/s and 0.25 ± 0.024 nL/s in assay [4] (MS-SOD 667 μg/mL); 0.25 nL/s and 0.25 ± 0.019 nL/s in assay [4] (MS-SOD 2000 μg/mL).

For the origin of these results see patent US20220168400A1, “USE OF A MANGANESE SUPEROXIDE DISMUTASE WITH HIGH STABILITY IN THE PREVENTION OR TREATMENT OF CEREBRAL STROKE” (CARRY HEALTH BIOPHARMACEUTICALS (HANGZHOU) CO., LTD., priority 2019, published 2022).
